{"source": "paper doi:10.1101/2021.03.01.433427", "about": "(bioRxiv, 2021)", "proteins": {"B1": {"name": "His-tagged TDP-43-LC (low complexity domain of the TAR DNA-binding protein 43, residues 262-414) (domain or fragment)", "chain": "PKHNSNRQLERSGRFGGNPGGFGNQGGFGNSRGGGAGLGNNQGSNMGGGMNFGAFSINPAMMAAAQAALQSSWGMMGMLASQQNQSGPSGNNQNQGNMQREPNQAFGSGNNSYSGSNSGAAIGWGSASNAGSGSGFNGGFGSSMDSKSSGWGM"}}, "target": "the molecule itself", "experiment": "solid state NMR"}
{"protein": "B1", "values": [{"measurement": "binding result", "result": "binds"}]}
